Experiment [1] concerns VEGFR2. Nature of the experiment: VEGFR2 phosphorylation at Tyr1175 in HUVECs, immunofluorescent antibody staining. The conditions noted are these: protein 1 μM. Format: cell-based. How it is done:
(§1) For the different treatment conditions HUVECs were seeded on 8 well dishes (LabTek chamber slides, immunofluorescence) or 6 well dishes (western blot) and left for 2 to 3 days until the culture was confluent. After a 4 h starvation of the cells in EBM-2 medium (Lonza, Switzerland), the cells were treated with Nogo-A Delta 20 (1 μM), Nogo-A Delta 20 (1 μM) and VEGF-A ([…]), Nogo-A Delta 21 (1 μM), Nogo-A Delta 21 (1 μM) and VEGF ([…]), or VEGF-A alone ([…]) in EBM-2 medium, respectively. The cells were either fixed in 4% formaldehyde for 15 min at room temperature or lysed in RIPA buffer. After fixation, HUVECs were stained with anti-phosphoVEGFR2 antibody (pTyr1175, #2478, Cell Signaling), F-actin (phalloidin Alexa Fluor 633, Molecular Probes) and DAPI. The same antibodies were used to detect VEGFR2 and phosphoVEGFR2 in western blot.

The test system of experiment [2] is VEGFR2. Nature of the experiment: VEGFR2 phosphorylation at Tyr1175 and total VEGFR2 in HUVECs, western blot. To be noted: 15 min, protein 1 μM. Format: cell-based. How it is done: as §1
The subject of a further experiment is GBM MVEC filopodia. Nature of the experiment: Peak traction forces of filopodia on nanopillars, soluble Nogo-A proteins. The format is cell-based, human. To be noted: soluble protein 1 μM. On the procedure:
(§2) For time-lapse- and force generation experiments, Vybrant/Dil (Invitrogen, 1:200)-labeled GBM MVEC (10^4 cells ml^−1) were added onto the nanopillar structures. The imaging process was started 1 h after seeding GBM MVEC on nanopillars. To calculate the traction force exerted by GBM MVEC on the nanopillar surface, the deflection of the nanopillar tip was imaged with confocal microscopy using a Leica confocal microscope SP5 with a63x, oil immersion, NA1.43 objective.
(§3) During image acquisition, GBM MVEC were kept at 37° C. and 10% CO2. Following laser wavelengths were used to acquire images of nanopillar arrays and Di-labeled cells: 488 nm (nanopillar structures) and 546 nm (Dil).
(§4) To quantitatively address the acute effects of soluble Nogo-A proteins on GBM MVEC retraction, Dil-labeled endothelial cells on nanopillars coated with 25 μg*ml^−1 human Fibronectin were treated 30 min after cell seeding with soluble Nogo-A Delta 20 and Nogo-A Delta 21 at 1 μM. Single GBM MVEC were then imaged for a total time of 1.5 h, with a scanning ratio of 30 s per frame. The nanopillar displacements were recorded as sequence images when the GBM MVEC applied forces on the nanopillar surface. For each condition, at least three individual GBM MVEC were analyzed. To address the role of Nogo-A receptors, endothelial cells were cultured for 30 min before incubating the cells for another 30 min with the pharmacological blocker of S1PR2 (JTE-013, 10 μM) (Tocris Bioscience), with the pharmacological blocker of S1PR1 and S1PR3 (VPC 23019, 10 μM) (Tocris Bioscience), or with the pharmacological blocker of S1PR1, 3, 4, and 5 (FTY720, 10 μM) (Tocris Bioscience). Then soluble Nogo-A Delta 20 (at 1 μM) or Nogo-A Delta 21 (at 1 μM) was added and lamellipodia and filopodia were imaged for 1h. The displacements (x) of the nanopillar tips induced by whole endothelial cells (for experiments with coated Nogo-A proteins) or by single endothelial filopodia (for experiments with soluble Nogo-A proteins) were measured using the program Diatrack (Powerful Particle Tracking, Semasopht). Finally, corresponding traction forces were calculated using the formula F=k*x, where k represents the spring constant of the nanopillars, 78.76 nN/μm.

The subject of a further experiment is GBM MVECs. Nature of the experiment: Transwell migration assay (VEGF-A + fibronectin induced). Format: cell-based, human. To be noted: protein coated on the underside of the insert, different concentrations. On the procedure:
For the migration assays, the undersides of 24-well plate inserts (FluoroBlock, BD Falcon) were coated with 0.5 ml PBS containing 10 μg*ml^−1 fibronectin (recombinant human fibronectin, Biopur AG) and different concentrations of Nogo-A Delta 21, Nogo-A Delta 20 and Nogo-66 (R&D Systems) and incubated for 1 h at 37° C. Endothelial cells (GBM MVECs) were starved in migration medium (DMEM+0.25% BSA) 4 h before detachment with accutase (PAA Laboratories). Cells were resuspended in migration medium (1 Mio ml^−1) and labeled with calcein AM (Molecular Probes, 4 μg ml^−1), followed by washing with HBSS and resuspending in migration medium (125,000 cells ml^−1). The coated inserts were washed and the bottom chamber was prepared by adding migration medium with or without human VEGF-A (PeproTech Inc., 10 ng ml^−1). The inserts were then put in an empty 24-well plate (BD Falcon) and calcein AM-labeled endothelial cells (50,000 cells per insert) were added.
The loaded inserts were transferred to the prepared cluster plate and incubated at 37° C., 5% CO2 for 4 h. A cell titration plate was prepared by adding different cell numbers (50,000/25,000/12,500/6,250/3,125/1,563/782 cells per well) in triplicates in 1.2 ml migration medium and incubated in parallel. The fluorescence was measured after 4 h by a cytofluorometer (Tean Infinite Pro 200) and the number of migrated cells was calculated based on the titration curve.
To ask how co-signaling of Nogo-A Delta 20/Nogo-66 coated to the underside of transwell inserts and of its receptors affect cell migration, calcein-AM labeled GBM MVECs were incubated for 1 h with the pharmacological blockers of-the Nogo-A Delta 20 receptor S1PR2 (JTE-013, 1 μM, 10 μM), with the pharmacological blocker of S1PR1 and S1PR3 (VPC 23019, 10 μM) (Tocris Bioscience), and with the competitive inhibitor of the Nogo-66 receptor NgR1 (NEP1-40, 4.6 μg/ml) during calcein-AM labeling. After washing, the cell medium was again supplied with these pharmacological blockers, prior to cell addition in the upper chamber of the transwell insert.

For experiment [3], the system named is GBM MVEC. Nature of the experiment: Time-lapse imaging of lamellipodia and filopodia retraction on nanopillars, soluble Nogo-A proteins. To be noted: soluble protein 1 μM, over 30 min to 1 h. Format: cell-based, human. On the procedure: as §2, §3
To quantitatively address the acute effects of soluble Nogo-A proteins on GBM MVEC retraction, Dil-labeled endothelial cells on nanopillars coated with 25 μg*ml^−1 human Fibronectin were treated 30 min after cell seeding with soluble Nogo-A Delta 20 and Nogo-A Delta 21 at 1 μM. Single GBM MVEC were then imaged for a total time of 1.5 h, with a scanning ratio of 30 s per frame. The nanopillar displacements were recorded as sequence images when the GBM MVEC applied forces on the nanopillar surface. For each condition, at least three individual GBM MVEC were analyzed. […] Finally, corresponding traction forces were calculated using the formula F=k*x, where k represents the spring constant of the nanopillars, 78.76 nN/μm.

For experiment [4], the system named is GBM MVEC. Nature of the experiment: Mean traction forces of adhered cells on nanopillars coated with Nogo-A proteins. Format: cell-based, human. The conditions noted are these: protein coated on nanopillars. How it is done:
as §2, §3
To quantitatively address the effects of coated Nogo-A proteins on adhesion between endothelial cells (GBM MVEC) and nanopillars, nanopillars were coated with Nogo-A Delta 20, Nogo-A Delta 21, or Fibronectin (blank condition).
To calculate the total force applied by endothelial cells (GBM MVEC) on the substrates, the average displacement of 800-5000 nanopillars per single cell was used. Single GBM MVEC were imaged for a total time of 20 min, with a scanning ratio of 30 s per frame. For each condition, at least three individual GBM MVEC were analyzed.
To address the role of Nogo-A receptors, endothelial cells were pre-incubated for 30 min before seeding with the pharmacological blocker of S1PR2 (JTE-013, 10 μM) (Tocris Bioscience), with the pharmacological blocker of S1PR1 and S1PR3 (VPC 23019, 10 μM) (Tocris Bioscience), or with the pharmacological blocker of S1PR1, 3, 4, and 5 (FTY720, 10 μM) (Tocris Bioscience).
as §4

B1: Nogo-A Delta 20: Nogo-A specific inhibitory domain, 182 aa; human aa 567-748 (SEQ ID NO 002), rat aa 544-725 (SEQ ID NO 001) (protein, UniProt Q9NQC3 567-748, looked up, fragment)
chain: TGTKIAYETKMDLVQTSEVMQESLYPAAQLCPSFEESEATPSPVLPDIVMEAPLNSAVPSAGASVIQPSSSPLEASSVNYESIKHEPENPPPYEEAMSVSLKKVSGIKEEIKEPENINAALQETEAPYISIACDLIKETKLSAEPAPDFSDYSEMAKVEQPVPDHSELVEDSSPDSEPVDLF
As to B1, in the experiment with VEGFR2 [1] (with VEGF-A for 30 min), the “phosphoVEGFR2 after 30 min” value is “no phosphoVEGFR2 was detectable”. Besides, in the experiment with VEGFR2 [1] (with VEGF-A, peak after 15 min), the “VEGFR2 phosphorylation at Tyr1175 compared to Nogo-A Delta 21 conditions” value is recorded as “considerably lower”. Further, in the experiment with VEGFR2 [2] (with VEGF-A), the “amount of phosphoVEGFR2 protein” value is listed as “reduced” and the “total amount of VEGFR2 protein” value was “reduced”. The “VEGFR2 phosphorylation, protein alone” value in the experiment with VEGFR2 [2] (without VEGF-A) is recorded as “did not induce”. In addition, in the experiment with GBM MVEC filopodia, the “peak traction forces of filopodia on the underlying nanopillars” value is reported as approximately 10 nN. In addition, the “VEGF+FN-induced migration” value with GBM MVECs is reported as “dose-dependently inhibited”. In addition, in the experiment on GBM MVEC [3], the “retraction of GBM MVEC lamellipodia and filopodia” value was “retraction”. In the experiment with GBM MVEC [4], the “mean traction forces and pillar displacements induced by adhered cells (change)” value is given as “reduced”; the “mean traction forces on the underlying nanopillars” value is recorded as approximately 12 nN.
